Tested on: MS2 coat protein
Experiment: apparent KD of MS2 coat protein; designed switch direction (-1 OFF switch, 1 ON switch): -1; higher = weaker reporter binding
In short: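 The reported apparent KD is a per-design median over clusters, from curve fits of normalised cluster fluorescence. Protein titrations used SNAP-549-labelled MS2 coat protein, doubled from 0.7 or 1.5 nM to 3 µM, in Tris-HCl pH 7.5 buffer with KCl, MgCl2, BSA, DTT, tRNA and Tween-20, with no input, 200 uM small-molecule ligand, or an oligonucleotide input. The RNA switches were transcribed on Illumina chips by stalled E. coli RNA polymerase.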

[1] = Eterna round: R95, input ligand: microRNA oligo, concentration not stated
[2] = input ligand: microRNA oligo, concentration not stated
[3] = Eterna round: R95, input ligand: FMN 200 uM
[4] = Eterna round: R95, input ligand: none

| Sequence | apparent KD of MS2 coat protein [1] [nM] | apparent KD of MS2 coat protein (input ligand: FMN 200 uM) [nM] | apparent KD of MS2 coat protein [2] [nM] | apparent KD of MS2 coat protein (input ligand: none) [nM] | further results |
| --- | --- | --- | --- | --- | --- |
| AAACAGGGAGGAUAUACAUAGAUCGUCUAACCUAAUUGGUCACAUGAGGAUCACCCAUGUAGAAGGCCCUUAGG [Tiisdixe] (puzzle: Exclusion 2) | 22.2 | – | – | – | – |
| UUUAUGUCAGGAUAUGAUUAGAUCUACUUUUGUAGAUCUAAUCAGAAGGGACAUGAGGAUCACCCAUGUAGUUU [Ex4 - 3 - 14] (puzzle: Exclusion 4) | 116 | – | – | – | – |
| CCCACCUCAUGAACAACAUGAGGAUCACCCAUGUUGAAGACUAAGGAUAUCGUACUCGAUGAAUGCGAGAAGGUGGCACUUCGA [Eternabot solution 36] (Eterna round: R96, puzzle: Exclusion NG 3) | – | 37.3 | 20.7 | 28.7 | – |
| AAUACUAACAGCUGACUGUUAGUACUGUAGGUUUGUGUUACAUGAGGAUCACCCAUGUCCUCAUAGGCUCGUCUUGU [Mat - Sensor v3 - Turn-off var 2 - D98] (puzzle: Sensor v3, turn-off variant 2) | 322 | – | – | – | apparent KD of MS2 coat protein [3]: 586 nM; apparent KD of MS2 coat protein [4]: 697 nM |
| AUAUAGUCAGGAUAUCGAAGUGUGUGUUGGUUUGUAAUUUACGAGAAGGGACAUGAGGAUCACCCAUGUAGGAA [JR_Exclusion4)Sub002] (Eterna round: R96, puzzle: Exclusion 4) | – | 49.3 | 33.8 | 44.1 | – |
| UUUACAAGCUAUUGAUCCCACAUGAGGAUCACCCAUGUUCAUGGCCGUGAGGCUAGGUAUACAAUUGCUCGUCUUAU [mod-JR] (Eterna round: R97, puzzle: Sensor, turn-off variant 1) | – | 59.8 | – | 78.7 | – |
| UAGAAUCGAGGAUAUACAUGAGGAUCACCCAUGUGUGGCCAUUUGGUGUGGUCGUCAGGUAGAAGGCGAUUACA [Exclusion 3 - Mod of Jieux's Gilly Gone Silly 23 v.5] (Eterna round: R96, puzzle: Exclusion 3) | – | 173 | 211 | 412 | – |
| UUGGAGAUAGGAUAUACGAGGAGAGUAGAGGGAAGGUGAUGACAUGAGGAUCACCCAUGUAGAAGGAUCAGGAG [JR_Exclu2_Sub068] (puzzle: Exclusion 2) | 112 | – | – | – | – |
| UGAGUACUGCGAGGAUAUACAUGAGGAUCACCCAUGUAAUAGUGUGAGGCUUUGCCUCACACAAUGUAGAAGGCGCAGUACUCU [Mat - Exclusion NG 2 - Mod of JL - D5] (Eterna round: R96, puzzle: Exclusion NG 2) | – | 15.5 | 9.63 | 11.8 | – |
| CUUUUUUGAGGAUAUUAGUAGUAAAUAAAUAAAAUUACUACUGAGAAGGCACAUGAGGAUCACCCAUGUUCCUC [salish99_ex4_r3_046] (puzzle: Exclusion 4) | 17.6 | – | – | – | – |
| ACAUGAGGAUCACCCAUGUCGGGCUGGUCCGCUCCGGCUGUUGAGGAUAUAGCCCGGUAUCCGCGCUAGAAGGUGAGGGCCGGC [Aenatbe mod 29] (Eterna round: R96, puzzle: Exclusion NG 3) | – | 35.6 | 29.5 | 31.4 | – |
| AUGAGCAGACGGAGAUCCAACAUGAGGAUCACCCAUGUCUCAUAAGCUUUUUGCUCAUCUUAUUGUACCUUGGUGCU [Mat - Sensor v3 - turn-off var 1 - JL Mod - D19] (puzzle: Sensor v3, turn-off variant 1) | 11.5 | – | – | – | apparent KD of MS2 coat protein [3]: 191 nM; apparent KD of MS2 coat protein [4]: 251 nM |
| AUAAUGUAAGGAUAUCAGUCGACUAGCCUCGGCUAGUCGACUGAGAAGGUACAUGAGGAUCACCCAUGUGAUUA [E4/10-A2] (Eterna round: R97, puzzle: Exclusion 4) | – | 762 | – | 191 | – |
| GGGUGACAUGAGGAUCACCCAUGUCAGGAUAUGAUACUAUGUACUUCGGUACAUAGUAUCAGAAGGGACAUAAA [Ex1-3: 15] (puzzle: Exclusion 1) | 103 | – | – | – | – |
| UAUAAUCGAGGAUAUACAUGAGGAUCACCCAUGUGUUGCCGCGUGACAUGAUCGUCAGGUAGAAGGCGAUUAUA [Exclusion 3 - Mod of Jieux's Gilly Gone Silly 23 v.10] (puzzle: Exclusion 3) | 147 | – | – | – | – |
| CAGUACUGAGGAUAUACAUGAGGAUCACCCAUGUGUCCCAGCUAGGAAACUAGCAAAAGUAGAAGGCAGUACUG [Fiskers Ex 3 828 mod 1] (Eterna round: R96, puzzle: Exclusion 3) | – | – | 20.6 | – | – |
| AAGUACCGGUGAGGAUAUUUUUAAUAGAACUUUAUGAUAUACAUGAGGAUCACCCAUGUUACUUUAAAGAAGGCAUCGGAUUAA [Mat - Exclusion NG 2 - Mod of JL - D86] (Eterna round: R96, puzzle: Exclusion NG 2) | – | – | 12.5 | – | – |

| Sequence | apparent KD of MS2 coat protein [1] [nM] | apparent KD of MS2 coat protein (input ligand: FMN 200 uM) [nM] | apparent KD of MS2 coat protein [2] [nM] | apparent KD of MS2 coat protein (input ligand: none) [nM] | further results |
| --- | --- | --- | --- | --- | --- |
| GAAAAGGUAGGAUAUACGAAAAAAAAGGGUAGAAAAGAAACACAUGAGGAUCACCCAUGUAGAAGGACCAAAAG [salish99_ex2_r3_016] (puzzle: Exclusion 2) | 27.8 | – | – | – | apparent KD of MS2 coat protein [3]: 78 nM; apparent KD of MS2 coat protein [4]: 21.5 nM |
| ACAAACACGGCAGGAUAUCCUCGCAUAUGAUAGGUUGUUCUCCACAUGAGGAUCACCCAUGUCGAGGAGAAGGGCCAUCAUUCU [Tibema] (Eterna round: R96, puzzle: Exclusion NG 2) | – | 16.2 | 12.7 | 18.9 | – |
| GCGGGCUUUUUGCUCGUUUACAUGAGGAUCACCCAUGUGUCUUCGCGCCCGGGCCCGGGCGGGCCCGGGCCCGGGCG [-52.3, -76.4, A 8%] (Eterna round: R97, puzzle: Sensor, turn-off variant 1) | – | 36.1 | – | 41.5 | – |
| UUGUUAUAUGAAGGAUAUACUUAACAUGAGGAUCACCCAUGUGGUGUUGUGAGUGAGUGAGUUUAGUAGAAGGUCAAUUCUUUU [JMF's solution 94] (Eterna round: R96, puzzle: Exclusion NG 2) | – | 735 | 440 | 421 | – |
| AACCAGCGAGGAUAUGCUUGCGCGUGUUCUGGUUGUAAUCGACUUGAGGAUCACCCAAGUAGAAGGCGCUGCCG [EX2 #51] (Eterna round: R97, puzzle: Exclusion 2) | – | 100 | – | 50.9 | – |
| CUUAUGUGAGGAUAUGCCUGGCCGUGAGGCCAAAUUGAUUAGCAGAAGGCACAUGAGGAUCACCCAUGUGCGGG [jl-ex4-4.67 ViennaUCT mod] (Eterna round: R97, puzzle: Exclusion 4) | – | 340 | – | 479 | – |
| GGGCCCGGUGUGAGGAUAUGUGAUCGGAAAUGAUCGUAGAAGGCACAUGAGGAUCACCCAUGUAAGCCGGGCCC [-31.3, -29.2 kcal, A 26%, 2-0] (Eterna round: R97, puzzle: Brourd's mod of Exclusion 4) | – | 34.2 | – | 289 | – |
| UCGGCGCGAGGAUAUACGUUUGCGCGUUUUCGUUUUUGCGUACAUGAGGAUCACCCAUGUAGAAGGCGCGCCGC [Apr-15 SS2-16] (puzzle: Exclusion 2) | 11.4 | – | – | – | – |
| CCCACAAGCUUUUUGCUCGACAUGAGGAUCACCCAUGUUGAAUGGGUUAUAUAUAUAUGAAACAUAUAUAUAUACCU [-24.7, -47.5 kcal, A 32%] (Eterna round: R97, puzzle: Sensor, turn-off variant 1) | – | 20.4 | – | 20.2 | – |
| UAAGAGUGAGGAUAUACGUCGCUGGUCCAGAUGGACGCAUGACAUGAGGAUCACCCAUGUAGAAGGCACAAAAC [Enxela Mod 3 - Jieux - Exclusion 2] (Eterna round: R97, puzzle: Exclusion 2) | – | 189 | – | 32.8 | – |
| UUCGUACAGCUUUGCUGUACGCGUACAUGAGGAUCACCCAUGUAGGAUAUGGUAGGCAAAGCUUACUAGAAGGAUAGAGUGAUC [Mat - Exclusion NG 3 - Mod of JL - D75] (Eterna round: R96, puzzle: Exclusion NG 3) | – | 244 | 96.2 | 238 | – |
| UGUACGAUGCGUGCUGACAUGCGUCGUGCAGCAGGUGAUACAUGAGGAUCACCCAUGUCCUCAUUUGCUCGUCAUGU [Mat - Sensor v3 - Turn-off var 2 - D25] (puzzle: Sensor v3, turn-off variant 2) | 384 | – | – | – | apparent KD of MS2 coat protein [3]: 73.4 nM; apparent KD of MS2 coat protein [4]: 91.3 nM |
| AAGUCGAGCGUGAGGAUAUCGUCCGGACGACCCAACGAGAAGGCACAUGAGGAUCACCCAUGUGAUUCAGCUCA [Brourd's EX4 #50] (Eterna round: R97, puzzle: Brourd's mod of Exclusion 4) | – | 20.3 | – | 18.7 | – |
| CGGUGCUGAGGAUAUACAUGAGGAUCACCCAUGUGUUCCUGCUAGGUGACUGGCAAAUGUAGAAGGCGGUACUG [JL-ex3-3.37 Brourd mod] (puzzle: Exclusion 3) | 120 | – | – | – | apparent KD of MS2 coat protein [3]: 34.8 nM; apparent KD of MS2 coat protein [4]: 131 nM |
| UACAUGUGAGGAUAUUAGUAGUAAAUAAAUAAAAUUAUUACUGAGAAGGUACAUGAGGAUCACCCAUGUUCCUU [Salish 062 v23] (Eterna round: R97, puzzle: Exclusion 4) | – | 17.5 | – | 12.7 | – |
| UCGUGUCUUGAGGAUAUGUUUGAAAAGGCCCACGCAGAAGGCGAGACAUGAGGAUCACCCAUGUCACAGCUCCG [EX6 C.16] (Eterna round: R97, puzzle: Exclusion 6) | – | 56.4 | – | 18.6 | – |
| CCCUCACAUGAGGAUCACCCAUGUUAGGAUAUCUACCAGGAGCCUAAAAUGGCCCAACGGAGAAGGAACGUGCA [Arbire] (Eterna round: R96, puzzle: Exclusion 1) | – | – | 14.7 | – | – |
